Source: patent US12156889B2, “Methods of administering mesenchymal stem cells activated by cytokines for enhancing immunosuppression” (Rutgers, The State University of New Jersey, priority 2012, dated 2024)

System: MSCs
Assay: Gene expression in cytokine-treated MSCs (quantitative RT-PCR, Western Blot)
Format: cell-based, mouse
Experimental: FIG. 6. IL-17A greatly enhances inflammatory cytokine-induced iNOS expression in mouse BM-MSCs at both mRNA and protein levels. BM-MSCs were treated with the indicated cytokines. The iNOS gene expression was measured by real-time PCR.
FIGS. 10A, 10B, 10C, 10D and 10E. (FIGS. 10A and 10C). MSCs were cultured with different combinations of inflammatory cytokines IFNγ, TNFα, IL-17A (10 ng/ml) for 12 hr, and then cells were harvested for RNA extraction. The mRNA expression levels of inflammatory molecules iNOS, IL-6, CXCL1 (FIG. 10A) and chemokines CCL2, CCL5, CXCL9, CXCL10 (FIG. 10C) were detected by quantitative RT-PCR. (FIG. 10B). MSCs were cultured with different combinations of inflammatory cytokines IFNγ, TNFα, IL-17A (10 ng/ml) for 24 hr, and the protein level of iNOS was detected by Western Blot. (FIG. 10D). MSCs were supplemented with Sup-CD3 or Sup-CD3 pretreated with antibodies against IL-17A, and cells were collected for RNA extraction after 12 hr. The expression of iNOS, IL-6, CXCL1, CCL2, CCL5, CXCL9 and CXCL10 were measured by quantitative RT-PCR. Sup-CD3: supernatant from splenocytes activated by anti-CD3 and anti-CD28. (FIG. 10E). MSCs were treated with Sup-CD3 or Sup-CD3 pretreated with antibodies against IL-17A, and the protein level of iNOS was assessed by Western Blot after 24 hr. mRNA expression values are means±SEM of three wells from a representative of three independent experiments. Western Blot data is from a representative of three independent experiments.
FIGS. 11A, 11B, 11C and 11D. (FIG. 11A) MSCs with Act1 knockdown or control were treated with IL-17A for different time and the phosphorylation levels of IκBα, ERK, p65, JNK were assessed by Western Blot. (FIG. 11B) MSCs with Act1 knockdown or control were treated with IFNγ and TNFα with or without IL-17A (all cytokines supplemented at 5 ng/ml) the protein levels of iNOS and Act1 were assessed by Western Blot. (FIG. 11C) MSCs (Act1 knockdown or control) were treated with different cytokines 12 hr, and iNOS expression was measured by quantitative RT-PCR. mRNA expression values are means±SEM. (FIG. 11D) MSCs (Act1 knockdown or control) were first treated with IFNγ and TNFα with or without IL-17A (all cytokines supplemented at 5 ng/ml) for 12 hr, and then cocultured with T cell hybridoma A1.1 cells at a ratio of 1:10 for 12 hr. T cell proliferation was measured by 3H-Tdr incorporation, taking the proliferation level of A1.1 alone as 100%.
FIGS. 12A and 12B. (FIG. 12A). WT MSCs or auf1^−/− MSCs were treated with IFNγ and TNFα, or together with IL-17A (all cytokines supplemented at 10 ng/ml) for 12 hr, and iNOS, IL-6 and CXCL1 expression was measured by quantitative RT-PCR. mRNA expression values are means±SEM of three wells from a representative of three independent experiments. (FIG. 12B). WT MSCs were treated with IFNγ and TNFα (10 ng/ml), or together with different concentrations of IL-17A; auf1^−/−-MSCs were treated with IFNγ and TNFα (10 ng/ml), or together with 10 ng/ml of IL-17A. After 24 hr, cells were harvested for detection of iNOS by Western Blot. Western blot is a representative of three independent experiments.
RNA isolation and gene expression assay-Total RNA was isolated with the RNAprep Pure Cell/Bacteria Kit. First-strand cDNA synthesis was performed with a cDNA synthesis kit. The levels of mRNAs were measured by quantitative RT-PCR (7900 HT; Applied Biosystems, Foster City, CA) with SYBR Green Master Mix and normalized to the level of β-actin mRNA. Sequences of forward and reverse primer pairs are as follows:
Western blotting analysis-Cells were washed twice with ice-cold PBS, harvested and lysed in the RIPA buffer (Millipore, Temecular, CA) containing a cocktail of protease inhibitors (Roche, Natley, NJ) and PMSF (Sigma) for 30 min on ice. Lysates were clarified by centrifugation at 16,000 g for 15 minutes. Protein concentration of the supernatant was determined by the Bradford assay (Bio-Rad, Hercules, CA). […]

[1] = together with IFNγ and TNFα, 10 ng/ml, 12 hr

B1: IL-17A: recombinant mouse interleukin 17A (protein)
chain: AAIIPQSSACPNTEAKDFLQNVKVNLKVFNSLGAKVSSRRPSDYLNRSTSPWTLHRNEDPDRYPSVIWEAQCRHQRCVNAEGKLDHHMNSVLIQQEILVLKREPESCPFTFRVEKMLVGVGCTCVASIVRQAA
B1 was tested, and the “IFNγ+TNFα induced iNOS expression in Act1 knockdown MSCs” value (5 ng/ml) was “could not upregulate”, the “expression of CCL5, CCL2, CXCL9, CXCL10” value (addition to IFNγ and TNFα, 10 ng/ml, 12 hr) was “unaffected” and the “expression of iNOS at mRNA and protein levels in BM-MSCs” value (in the presence of IFNγ and TNFα) was “greatly enhanced”. For the same molecule, the “iNOS, IL-6, and CXCL1 mRNAs in wild-type MSCs” value [1] was “significant increases”, the “increase of iNOS, IL-6, and CXCL1 mRNA abundance in auf1−/− MSCs” value [1] was “less than twofold” and the “IL-17A induction of iNOS expression in MSCs with AUF1 knocked down with siRNA” value (with IFNγ+TNFα) was “largely abrogated”. The “iNOS expression in wild type MSCs” value (with IFNγ+TNFα) was “strikingly induced”.
